± gives the standard deviation of the averaged measurements.
Tested on: ATP
Assay: switch fluorescence ratio, 500 uM ATP over buffer (Cy3 cluster intensity, sum of 5 cycles each) (fold (ratio)); higher = stronger signal-on switching upon ATP binding; sequences stand for … in TCGTCGGCAGCGTCAGATGTGTATAAGAGACAGTTTTTTTTTTTTTTTTTTTTTTTTT…TC
Settings: aptamer strand: ATP DNA aptamer (quencher-CACCTGGGGGAGTATTGCGGAGGAAGG + anchor), 100 nM annealed; ATP concentration: 500 uM
Method in brief: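 Cy3-labelled switching-strand clusters on a modified Illumina MiSeq flow-cell were annealed to 100 nM quencher-labelled ATP aptamer, imaged in selection buffer, then imaged after 15 min with 500 uM ATP at 22 °C. Five buffer/ATP cycles ran, with NaOH stripping and re-annealing between them. The fluorescence ratio is summed target-cycle over summed buffer-cycle Cy3 intensity per cluster, averaged per switch-domain sequence. Clusters outside 100-1000 RFU were excluded.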
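Note: ATP exposure 15 min at 22 °C before imaging.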

Row | Sequence | switch fluorescence ratio
1 | ACGGGCAGGG | 1.03 ± 0.041
2 | ACGGGCCTTG | 0.987 ± 0.0063
3 | ACGGGCTGGG | 1.1 ± 0.02
4 | ACGGGCTGTG | 1.01 ± 0.054
5 | ACGGGCTTCG | 1.05 ± 0.049
6 | ACGGGGACGG | 1.03 ± 0.042
7 | ACGGGGGAAC | 1.046 ± 0.0071
8 | ACGGGGGCCT | 1.014 ± 0.0045
9 | ACGGGGGGAG | 1.01 ± 0.035
10 | ACGGGGGGCG | 0.984 ± 0.052
11 | ACGGGGGGCT | 0.995 ± 0.057
12 | ACGGGGGTAG | 0.989 ± 0.022
13 | ACGGGGGTTC | 1.01 ± 0.012
14 | ACGGGGTAAA | 1.004 ± 0.009
15 | ACGGGGTCAC | 1.026 ± 0.0017
16 | ACGGGGTGCA | 0.99 ± 0.017
17 | ACGGGGTGTT | 1 ± 0.04
18 | ACGGGGTTGC | 1.01 ± 0.017
19 | ACGGGGTTGG | 1.03 ± 0.024
20 | ACGGGTAATC | 1.071 ± 0.0095
21 | ACGGGTAGAC | 1.0808 ± 0.001
22 | ACGGGTAGCA | 0.999 ± 0.016
23 | ACGGGTGGCA | 0.986 ± 0.019
24 | ACGGGTGGGT | 1.08 ± 0.15
25 | ACGGGTTGAG | 1.03 ± 0.029

Row | Sequence | switch fluorescence ratio
26 | ACGGTAGAAA | 1.01 ± 0.012
27 | ACGGTGAGGG | 1.02 ± 0.026
28 | ACGGTTAAGG | 1.03 ± 0.019
29 | ACGGTTCGGA | 1.02 ± 0.019
30 | ACGGTTGTGC | 1.01 ± 0.04
31 | ACGGTTGTTC | 1.027 ± 0.005
32 | ACGTAAAGAC | 1.17 ± 0.23
33 | ACGTACTTGA | 1.52 ± 0.085
34 | ACGTAGTTTC | 1.05 ± 0.023
35 | ACGTATAGAG | 0.991 ± 0.042
36 | ACGTATCCGG | 0.9932 ± 0.0067
37 | ACGTCAAAAC | 2.91 ± 0.41
38 | ACGTCAGTCA | 0.976 ± 0.023
39 | ACGTCGGAG | 0.995 ± 0.046
40 | ACGTCGGGTG | 1.25 ± 0.15
41 | ACGTCGTAGG | 1.05 ± 0.016
42 | ACGTCTTTGG | 1.02 ± 0.043
43 | ACGTGACGGG | 1.07 ± 0.029
44 | ACGTGGAAGC | 1.04 ± 0.043
45 | ACGTGTTGGC | 1.02 ± 0.052
46 | ACGTTAAGTT | 1.1 ± 0.029
47 | ACGTTAGTCG | 0.9687 ± 0.0095
48 | ACGTTGATGG | 0.9882 ± 0.0095
49 | ACGTTGCCAG | 0.963 ± 0.019
50 | ACGTTTGCG | 0.98 ± 0.04

Row | Sequence | switch fluorescence ratio
51 | ACGTTTGGAT | 1.02 ± 0.027
52 | ACGTTTGTCC | 1.03 ± 0.022
53 | ACGTTTTTTT | 0.988 ± 0.035
54 | ACTAAAGGGG | 1.04 ± 0.021
55 | ACTAACTAAT | 1.06 ± 0.056
56 | ACTAAGTAAC | 1.04 ± 0.037
57 | ACTAAGTCTG | 1.02 ± 0.045
58 | ACTAATGGTT | 1.03 ± 0.022
59 | ACTACCTACA | 1.364 ± 0.0065
60 | ACTACGTCGG | 1.08 ± 0.044
61 | ACTACTGCTG | 1.05 ± 0.0044
62 | ACTACTGGTT | 1.03 ± 0.03
63 | ACTAGCTTGT | 1.04 ± 0.026
64 | ACTAGGATGG | 0.99 ± 0.026
65 | ACTAGGTCCG | 1.005 ± 0.0016
66 | ACTAGTCACG | 1.072 ± 0.0093
67 | ACTATATAAT | 1.08 ± 0.014
68 | ACTATCGGGA | 1.02 ± 0.037
69 | ACTATGAAAA | 1.037 ± 0.0011
70 | ACTATGGCCC | 1.03 ± 0.017
71 | ACTATGGCGG | 1.03 ± 0.032
72 | ACTATGGTAA | 0.9704 ± 0.008
73 | ACTATTAATC | 1 ± 0.02
74 | ACTATTGCGG | 1.01 ± 0.025
75 | ACTATTTTTG | 0.9745 ± 0.0067

Row | Sequence | switch fluorescence ratio
76 | ACTCACGGAG | 1.16 ± 0.036
77 | ACTCAGATTG | 1.05 ± 0.056
78 | ACTCATAATT | 1.0222 ± 0.00042
79 | ACTCATGATG | 0.99 ± 0.024
80 | ACTCCGTCTT | 1.441 ± 0.0027
81 | ACTCCTCTTT | 1.093 ± 0.0093
82 | ACTCCTGTAA | 1.13 ± 0.11
83 | ACTCCTTGCT | 1.24 ± 0.018
84 | ACTCGAAGGG | 1.02 ± 0.042
85 | ACTCGACCTT | 1.21 ± 0.15
86 | ACTCGCAGGG | 1.073 ± 0.0016
87 | ACTCGGAATT | 1.12 ± 0.019
88 | ACTCTAAAAA | 1.05 ± 0.012
89 | ACTCTCGAGG | 1.24 ± 0.34
90 | ACTCTGGCGT | 1.08 ± 0.024
91 | ACTCTGGGGG | 1.07 ± 0.092
92 | ACTCTTGCGG | 1.01 ± 0.016
93 | ACTCTTGTTT | 1.03 ± 0.014
94 | ACTGACAGCG | 1.0189 ± 0.00036
95 | ACTGAGGAAA | 1.01 ± 0.046
96 | ACTGAGGTAA | 0.95 ± 0.043
97 | ACTGAGTTTG | 1 ± 0.016
98 | ACTGATCAGA | 0.99427 ± 0.00038
99 | ACTGATCGCG | 1.02 ± 0.034
100 | ACTGATGGTA | 1.02 ± 0.025
